{
  "source": "paper PMC5408392",
  "assay_in_all_cases": "SEC-MALS; SEC followed by multiangle light scattering of the SEC-purified Δ123 species",
  "key": {"[1]": {"target": "Δ123 E2 dimer (G1a strain H77c) (hepatitis C virus genotype 1a, strain H77c) (UniProt P27958)"}, "[2]": {"target": "Δ123 E2 high-molecular-weight form 1 (HMW1, G1a strain H77c) (hepatitis C virus genotype 1a, strain H77c) (UniProt P27958)"}, "[3]": {"target": "Δ123 E2 high-molecular-weight form 2 (HMW2, G1a strain H77c) (hepatitis C virus genotype 1a, strain H77c) (UniProt P27958)"}},
  "data": [
    {"substance": "Δ123 E2 dimer (G1a strain H77c) (from UniProt P27958 384-661) (domain or fragment)", "values": [
      {"measurement": "stoichiometry N", "setting": "[1]", "value": 2.1}
    ]},
    {"substance": "Δ123 E2 high-molecular-weight form 1 (HMW1, G1a strain H77c) (from UniProt P27958 384-661) (domain or fragment)", "values": [
      {"measurement": "stoichiometry N", "setting": "[2]", "value": 51.6}
    ]},
    {"substance": "Δ123 E2 high-molecular-weight form 2 (HMW2, G1a strain H77c) (from UniProt P27958 384-661) (domain or fragment)", "values": [
      {"measurement": "stoichiometry N", "setting": "[3]", "value": 5.1}
    ]}
  ]
}
